These results are taken from patent US20070077239.

The data set concerns the target bovine serum albumin, P02769.

Chain of bovine serum albumin, P02769 (P02769 25-607): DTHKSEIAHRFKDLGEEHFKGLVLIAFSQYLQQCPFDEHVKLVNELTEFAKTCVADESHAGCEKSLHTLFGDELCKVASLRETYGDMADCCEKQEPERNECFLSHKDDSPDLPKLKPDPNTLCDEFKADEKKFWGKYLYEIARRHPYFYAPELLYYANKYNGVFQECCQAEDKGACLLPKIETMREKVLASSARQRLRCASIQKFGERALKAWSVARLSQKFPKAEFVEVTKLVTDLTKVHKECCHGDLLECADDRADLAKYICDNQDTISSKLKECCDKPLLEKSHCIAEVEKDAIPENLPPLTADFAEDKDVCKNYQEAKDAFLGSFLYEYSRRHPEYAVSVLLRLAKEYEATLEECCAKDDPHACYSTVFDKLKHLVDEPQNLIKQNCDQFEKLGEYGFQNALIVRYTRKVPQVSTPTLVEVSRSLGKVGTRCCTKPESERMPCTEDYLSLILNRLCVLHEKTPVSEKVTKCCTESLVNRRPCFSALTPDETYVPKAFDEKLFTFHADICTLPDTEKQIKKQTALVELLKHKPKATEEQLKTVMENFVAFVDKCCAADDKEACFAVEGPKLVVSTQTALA

B1: MPO purified from human PMNs (protein)
chain 1: not shown
chain 2: VNCETSCVQQPPCFPLKIPPNDPRIKNQADCIPFFRSCPACPGSNITIRNQINALTSFVDASMVYGSEEPLARNLRNMSNQLGLLAVNQRFQDNGRALLPFDNLHDDPCLLTNRSARIPCFLAGDTRSSEMPELTSMHTLLLREHNRLATELKSLNPRWDGERLYQEARKIVGAMVQIITYRDYLPLVLGPTAMRKYLPTYRSYNDSVDPRIANVFTNAFRYGHTLIQPFMFRLDNRYQPMEPNPRVPLSRVFFASWRVVLEGGIDPILRGLMATPAKLNRQNQIAVDEIRERLFEQVMRIGLDLPALNMQRSRDHGLPGYNAWRRFCGLPQPETVGQLGTVLRNLKLARKLMEQYGTPNNIDIWMGGVSEPLKRKGRVGPLLACIIGTQFRKLRDGDRFWWENEGVFSMQQRQALAQISLPRIICDNTGITTVSKNNIFMSNSYPRDFVNCSTLPALNLASWREAS
Turning to B1, the “endocytosis of MPO in BLMVEC (confocal microscopy)” value is listed as “in the presence of albumin, MPO staining was markedly co-localized with albumin-containing vesicles” and the “transendothelial 125I-MPO permeability (BLMVEC on Transwell filters)” value is listed as “increased more than 2-fold in the presence of albumin, as compared to γ-globulin”.
